Experimental data taken from publication PMC2112702 (The Journal of Cell Biology, 1983).

B1: clathrin light chain, Mr 36,000 (natural protein, bovine (calf brain), UniProt P04973 1-243, looked up)
chain: MAELDPFGVPAGGPALGNGVAGEEDPAAAFLAQQESEIAGIENDEAFAILDGGAPGSQPHGEPPGIPDAVDGVTNGDYYQESNGPTDSYAAISQVDRLQSEPESIRKWREEQTERLEALDANSRKQEAEWKEKAIKELDEWYARQDEQLQKTKANNRVADEAFYKQPFADVIGYVTNINHPCYSLEQAAEEAFVNDIEESSPGTEWERVARLCDFNPKSSKQAKDVSRMRSVLISLKQAPLVH
B2: clathrin light chain, Mr 33,000 (natural protein, bovine (calf brain), UniProt P04975 1-228, looked up)
chain: MADDFGFFSSSESGAPEAAEEDPAAAFLAQQESEIAGIENDEGFGAPAGSQGGLAQPGPASGASEDMGATVNGDVFQEANGPADGYAAIAQADRLTQEPESIRKWREEQRKRLQELDAASKVMEQEWREKAKKDLEEWNQRQSEQVEKNKINNRIADKAFYQQPDADIIGYVASEEAFVKESKEETPGTEWEKVAQLCDFNPKSSKQCKDVSRLRSVLMSLKQTPLSR

Molecular target: clathrin (Mr ~180,000 polypeptide) (bovine (calf brain), UniProt P49951 1-1675)
Test: co-sedimentation

Chain of clathrin (Mr ~180,000 polypeptide) (P49951 whole entry): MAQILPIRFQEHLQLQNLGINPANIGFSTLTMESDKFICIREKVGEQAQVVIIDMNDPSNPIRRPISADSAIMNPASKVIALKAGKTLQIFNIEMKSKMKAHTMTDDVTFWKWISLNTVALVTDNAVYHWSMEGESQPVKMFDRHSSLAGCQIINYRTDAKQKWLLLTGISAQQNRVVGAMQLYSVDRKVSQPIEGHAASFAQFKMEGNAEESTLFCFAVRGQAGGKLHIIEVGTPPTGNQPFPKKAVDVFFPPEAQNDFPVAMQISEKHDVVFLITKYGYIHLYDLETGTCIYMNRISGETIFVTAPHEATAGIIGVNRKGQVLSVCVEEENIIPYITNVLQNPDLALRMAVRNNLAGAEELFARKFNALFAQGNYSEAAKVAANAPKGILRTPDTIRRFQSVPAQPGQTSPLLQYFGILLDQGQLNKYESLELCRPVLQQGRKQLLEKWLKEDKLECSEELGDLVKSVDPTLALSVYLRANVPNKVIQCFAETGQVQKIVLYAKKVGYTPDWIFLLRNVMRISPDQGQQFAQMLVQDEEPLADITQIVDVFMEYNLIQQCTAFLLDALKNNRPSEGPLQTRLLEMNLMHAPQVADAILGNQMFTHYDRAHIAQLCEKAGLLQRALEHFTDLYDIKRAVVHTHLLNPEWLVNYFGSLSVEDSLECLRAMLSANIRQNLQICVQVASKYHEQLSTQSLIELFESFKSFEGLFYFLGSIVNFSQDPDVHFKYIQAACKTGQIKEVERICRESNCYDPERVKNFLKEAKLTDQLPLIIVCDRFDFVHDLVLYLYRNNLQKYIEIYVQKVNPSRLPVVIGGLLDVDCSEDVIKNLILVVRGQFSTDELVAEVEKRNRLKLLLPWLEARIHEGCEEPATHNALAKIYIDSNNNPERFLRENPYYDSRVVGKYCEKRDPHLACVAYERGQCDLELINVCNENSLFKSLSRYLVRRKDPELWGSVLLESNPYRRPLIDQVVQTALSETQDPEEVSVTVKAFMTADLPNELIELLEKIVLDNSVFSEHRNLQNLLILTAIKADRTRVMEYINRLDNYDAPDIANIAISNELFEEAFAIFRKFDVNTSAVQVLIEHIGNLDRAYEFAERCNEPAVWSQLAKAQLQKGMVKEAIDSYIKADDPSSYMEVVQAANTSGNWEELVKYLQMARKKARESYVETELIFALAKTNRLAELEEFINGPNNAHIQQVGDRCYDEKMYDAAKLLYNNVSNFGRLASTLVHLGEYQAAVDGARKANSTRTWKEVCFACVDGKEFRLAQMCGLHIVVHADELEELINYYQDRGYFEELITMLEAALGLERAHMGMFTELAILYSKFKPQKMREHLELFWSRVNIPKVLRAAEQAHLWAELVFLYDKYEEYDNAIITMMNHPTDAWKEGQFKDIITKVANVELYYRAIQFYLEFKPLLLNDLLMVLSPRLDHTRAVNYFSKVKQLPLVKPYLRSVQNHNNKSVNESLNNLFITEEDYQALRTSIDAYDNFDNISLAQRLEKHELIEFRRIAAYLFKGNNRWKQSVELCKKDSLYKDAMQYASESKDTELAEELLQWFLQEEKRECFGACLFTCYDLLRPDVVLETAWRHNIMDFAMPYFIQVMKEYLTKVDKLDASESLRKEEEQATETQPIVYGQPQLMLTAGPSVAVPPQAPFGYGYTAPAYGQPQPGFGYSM

| Binder | stoichiometry N |
| --- | --- |
| B1 | 0.83 mol per 3.00 mol of 180,000 clathrin (one triskelion) |
| B2 | 1.62 mol per 3.00 mol of 180,000 clathrin (one triskelion) |
